Experimental data: paper doi:10.1101/2024.08.16.608213

Columns and labels:
NDM-1 beta-lactamase = NDM-1 beta-lactamase (UniProt C7C422 29-270); assay: EMSA
IMP-1 beta-lactamase = IMP-1 beta-lactamase (UniProt P52699 19-246); assay: EMSA
VIM-1 beta-lactamase = VIM-1 beta-lactamase (UniProt A0A0F7KYQ8 21-266); assay: EMSA
SPM-1 beta-lactamase [1] = target: T1, SPM-1 beta-lactamase (Pseudomonas aeruginosa, UniProt Q8G9Q0 29-276); assay: EMSA
T1 sequence: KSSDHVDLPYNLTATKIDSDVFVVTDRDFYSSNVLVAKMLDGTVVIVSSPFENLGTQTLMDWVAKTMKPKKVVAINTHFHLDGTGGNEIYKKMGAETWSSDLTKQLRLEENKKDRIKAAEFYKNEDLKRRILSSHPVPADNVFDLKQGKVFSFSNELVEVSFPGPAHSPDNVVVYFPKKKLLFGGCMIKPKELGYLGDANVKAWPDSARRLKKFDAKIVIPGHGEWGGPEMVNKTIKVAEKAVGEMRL

SPM-1 beta-lactamase [2] = target: T1, SPM-1 beta-lactamase; assay: NMR

Chain of NDM-1 beta-lactamase (C7C422 29-270): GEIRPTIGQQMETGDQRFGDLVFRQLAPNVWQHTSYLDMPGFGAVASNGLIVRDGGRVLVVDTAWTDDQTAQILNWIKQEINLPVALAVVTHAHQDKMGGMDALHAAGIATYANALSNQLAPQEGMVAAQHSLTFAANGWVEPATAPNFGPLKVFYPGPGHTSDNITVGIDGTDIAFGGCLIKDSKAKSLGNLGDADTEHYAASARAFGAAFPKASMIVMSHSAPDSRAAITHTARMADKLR
Chain of IMP-1 beta-lactamase (P52699 19-246): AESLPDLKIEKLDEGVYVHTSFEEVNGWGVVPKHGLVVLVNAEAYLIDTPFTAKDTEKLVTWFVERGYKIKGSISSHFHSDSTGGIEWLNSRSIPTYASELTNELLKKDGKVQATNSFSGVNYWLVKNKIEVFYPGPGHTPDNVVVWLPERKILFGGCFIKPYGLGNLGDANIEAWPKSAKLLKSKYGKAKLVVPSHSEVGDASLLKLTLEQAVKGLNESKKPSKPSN

| Binder | binding result (NDM-1 beta-lactamase) | binding result (IMP-1 beta-lactamase) | binding result (VIM-1 beta-lactamase) | binding result (SPM-1 beta-lactamase [1]) | binding result (SPM-1 beta-lactamase [2]) |
| --- | --- | --- | --- | --- | --- |
| GGGAGAUGCUAGAGAUUCGGUGGGACACCCGUCUCCC (XNA, 2'-fluoro at all pyrimidines (C, U)) [S25 2'-FY] | no binding | no binding | no binding | binds |  |
| GGGAGAUGCUAGAGAUUCGGUGGGACACCCGUCUCCC (structured_RNA) [S25 RNA] |  |  |  |  | binds |
| GGGAGAUGCUAGAGAUUCGGUGGGACACCCUUCUCCC (structured_RNA) [S30 RNA (S25 G31U)] |  |  |  |  | binds |
